{"source": "paper PMC9706586", "about": "(Theranostics, 2022)", "binders": {"B1": {"name": "Rituximab X-body (antibody, human IgG1, kappa)", "heavy": "not shown", "chain": "QIVLSQSPAILSASPGEKVTMTCRASSSVSYIHWFQQKPGSSPKPWIYATSNLASGVPVRFSGSGSGTSYSLTISRVEAEDAATYYCQQWTSNPPTFGGGTKLEIKRTVAAPSVFIFPPSDEQLKSGTASVVCLLNNFYPREAKVQWKVDNALQSGNSQESVTEQDSKDSTYSLSSTLTLSKADYEKHKVYACEVTHQGLSSPVTKSFNRGECGGGGSGGGGSGGGGSGGGGSGGGGSGGGGSVPPPPPCCHPRLSLHRPALEDLLLGSEANLTCTLTGLRDASGATFTWTPSSGKSAVQGPPERDLCGCYSVSSVLPGCAQPWNHGETFTCTAAHPELKTPLTANITKSGNTFRPEVHLLPPPSEELALNELVTLTCLARGFSPKDVLVRWLQGSQELPREKYLTWASRQEPSQGTTTYAVTSILRVAAEDWKKGETFSCMVGHEALPLAFTQKTIDRMAGK", "notes": "6×G4S linker; IgA2 Fc (hinge, CH2, CH3) without the tailpiece region; Tetramer of two heavy chains and two chimeric chains: two Fabs, one IgG1 Fc, one IgA2 Fc; also called anti-CD20 X-body; anti-human CD20 X-body with 6×G4S linker; source: HEK293F, transfected (pTT5), purified (HiTrap Protein A, Superdex 200 Increase); copies: 2 + 2"}}, "assay_in_all_cases": "SPR; Biacore T200, CM5 chip with immobilised anti-His antibody, 20 °C; His-tagged receptor or antigen captured; serial dilutions of anti-CD20 X-body, IgG or IgA injected (120 s binding, 240 s dissociation, 30 µL/min); 1:1 binding kinetic model or steady-state affinity model", "settings_in_all_cases": "both partners purified", "key": {"FcγRIIa^H131": {"molecular_target": "T1, FcγRIIa^H131 (human, UniProt P12318 34-217)", "T1 construct": "The methods name FcγRIIa only; source: HEK293F, secreted, purified (HisTrap HP); not shown: His6, C-terminal, kept", "T1 sequence (looked up)": "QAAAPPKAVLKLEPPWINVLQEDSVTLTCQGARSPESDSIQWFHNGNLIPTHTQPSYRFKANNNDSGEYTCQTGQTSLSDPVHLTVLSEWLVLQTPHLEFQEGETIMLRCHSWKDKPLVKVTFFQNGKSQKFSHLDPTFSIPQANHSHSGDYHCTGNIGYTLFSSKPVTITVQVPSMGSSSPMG"}, "FcγRIIIa^F158": {"molecular_target": "T2, FcγRIIIa^F158 (human, UniProt P08637 17-208)", "T2 construct": "source: HEK293F, secreted, purified (HisTrap HP); not shown: His6, C-terminal, kept", "T2 sequence (P08637 17-208)": "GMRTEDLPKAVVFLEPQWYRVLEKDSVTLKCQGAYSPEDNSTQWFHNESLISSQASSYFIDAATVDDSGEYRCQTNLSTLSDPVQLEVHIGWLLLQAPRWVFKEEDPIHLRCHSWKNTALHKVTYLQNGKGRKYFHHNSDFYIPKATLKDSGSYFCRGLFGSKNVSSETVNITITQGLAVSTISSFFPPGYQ"}, "CD20": {"molecular_target": "T3, CD20 (human, UniProt P11836 1-297)", "T3 construct": "CD20, the antigen of rituximab; His-tagged, captured on the anti-His chip; also called antigen CD20; hCD20", "T3 sequence (looked up)": "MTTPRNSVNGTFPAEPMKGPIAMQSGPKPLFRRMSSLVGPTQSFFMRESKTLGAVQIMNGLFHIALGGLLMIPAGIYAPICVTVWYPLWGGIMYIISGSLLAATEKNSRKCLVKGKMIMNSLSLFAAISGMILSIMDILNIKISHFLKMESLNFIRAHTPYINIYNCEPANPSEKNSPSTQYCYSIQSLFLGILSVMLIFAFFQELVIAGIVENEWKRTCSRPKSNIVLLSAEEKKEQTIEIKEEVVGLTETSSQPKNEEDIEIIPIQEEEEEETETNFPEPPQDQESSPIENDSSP"}, "FcγRIIb": {"molecular_target": "T4, FcγRIIb (human, UniProt P31994 43-217)", "T4 construct": "human FcγRIIb, extracellular domain; source: HEK293F, secreted, purified (HisTrap HP); not shown: His6, C-terminal, kept", "T4 sequence (looked up)": "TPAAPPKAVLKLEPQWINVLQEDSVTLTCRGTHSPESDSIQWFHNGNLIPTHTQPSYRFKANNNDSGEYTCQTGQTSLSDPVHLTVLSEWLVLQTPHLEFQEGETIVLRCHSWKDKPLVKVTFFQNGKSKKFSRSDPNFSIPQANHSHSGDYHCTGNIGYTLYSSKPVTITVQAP"}}}
{"binder": "B1", "values": [{"measurement": "Kd", "setting": "FcγRIIa^H131", "result": 0.0364, "unit": "nM"}, {"measurement": "Kd", "setting": "FcγRIIIa^F158", "result": 0.0216, "unit": "nM"}, {"measurement": "Kd", "setting": "CD20", "result": 8.04, "unit": "nM"}, {"measurement": "Kd", "setting": "FcγRIIb", "result": 0.00422, "unit": "nM"}]}
